Here are results for four compounds from paper PMC6443809, “Integrin activation by the lipid molecule 25-hydroxycholesterol induces a proinflammatory response” (Nature Communications, 2019).

Where only a bound is given, the exact number is not on record here.

The target in one assay is T1, αvβ3 integrin (Homo sapiens, UniProt P05106+P06756).
T1 construct: gene ITGAV; Purified human αvβ3 integrin protein; with integrin αv subunit (ITGAV)
The assay is described as follows: SPR (Biacore […], immobilized αvβ[…]); also 3H-25HC binding with fractalkine-CD competition and biotin-25HC pull-down. On the technique in general: Surface plasmon resonance follows binding to a sensor surface in real time, without labels.

In assay [1] the target is purified human αvβ3 integrin protein (human) (UniProt P06756). The assay is described as follows: radioligand binding; modified ELISA-type competitive assay: αvβ3 integrin coated on 96-well plate (200 ng/well in PBS with 1 mM MnCl2, 16 h, 4 °C); fractalkine-CD (1000 ng/well in HEPES-Tyrodes buffer) or water added 2 h at room temperature, washed; then 3H-25HC in PBS/0.5% BSA 16 h at 4 °C; bound radioactivity counted.

The target of assay [2] is collagen-I (Homo sapiens) (UniProt P02452). Briefly: SPR. Conditions: cited from earlier work.
The target in the next assay is IGF1 (Homo sapiens) (UniProt P05019). The assay is described as follows: SPR. To be noted: cited from earlier work.
For assay [3], the target named is phospholipase A2 (Homo sapiens) (UniProt P14555). The assay is described as follows: SPR. To be noted: cited from earlier work.
For assay [4], the target named is vitronectin (Homo sapiens) (UniProt P04004). The assay is described as follows: SPR. To be noted: cited from earlier work.

By Kd is commonly meant the equilibrium constant for the complex coming apart.

In turn, `C[C@H](CCCC(C)(C)O)[C@H]1CC[C@H]2[C@@H]3CC=C4C[C@@H](O)CC[C@]4(C)[C@H]3CC[C@]12C` [25HC, 25-hydroxycholesterol] showed a dissociation constant Kd on αvβ3 integrin of 10.9 nM.

With “purified chemokine domain (CD) of recombinant human fractalkine protein (from UniProt P78423 25-397) (domain or fragment)”, the loss of 3H-25HC binding to immobilised αvβ3 integrin after pre-incubation with fractalkine-CD in assay [1] is more than 60%.

On to α1β1 integrin (from UniProt P56199), for which the Kd in assay [2] is 24 nM.

Regarding αvβ3 integrin (from UniProt P06756), the Kd with IGF1 (Homo sapiens) was 31 nM; in assay [3], 211 nM; in assay [4], 64 nM.
